# Values of other authors as cited in PMC4303274.
# Where two headings read alike, the source gives them in different places.
# What was measured:
# [1] = target: neurogranin (Homo sapiens) (UniProt Q92686)
# CaMKII (Homo sapiens) [2] = target: CaMKII (Homo sapiens) (UniProt Q9UQM7)
# CaMKII (Homo sapiens) [3] = target: CaMKII (Homo sapiens) (UniProt Q9UQM7); remark: listed apart in the source
# Sequence of CaMKII (Homo sapiens) (Q9UQM7 whole entry): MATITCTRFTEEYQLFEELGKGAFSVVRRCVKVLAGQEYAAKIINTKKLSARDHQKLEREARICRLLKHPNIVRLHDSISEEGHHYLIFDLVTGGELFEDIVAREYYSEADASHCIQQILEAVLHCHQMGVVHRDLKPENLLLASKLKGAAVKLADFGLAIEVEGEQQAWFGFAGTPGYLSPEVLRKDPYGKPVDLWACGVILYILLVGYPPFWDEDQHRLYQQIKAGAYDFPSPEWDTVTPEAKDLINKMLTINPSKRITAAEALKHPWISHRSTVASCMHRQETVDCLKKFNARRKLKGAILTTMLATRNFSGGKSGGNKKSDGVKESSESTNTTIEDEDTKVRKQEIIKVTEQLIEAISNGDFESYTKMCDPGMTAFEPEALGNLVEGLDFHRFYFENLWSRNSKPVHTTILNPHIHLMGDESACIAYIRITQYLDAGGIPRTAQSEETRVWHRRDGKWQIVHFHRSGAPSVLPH
# Sequence of neurogranin (Homo sapiens) (Q92686 whole entry): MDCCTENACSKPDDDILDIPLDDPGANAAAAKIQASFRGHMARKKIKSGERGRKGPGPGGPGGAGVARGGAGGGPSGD
Kd [1] [µM],Kd (CaMKII (Homo sapiens) [2]) [µM],Kd (CaMKII (Homo sapiens) [3]) [µM],Substance
1.05,0.95,,calmodulin C-lobe fragment TR2C (R state) TR2C (from UniProt P0DP23)
,,88,calmodulin C-lobe fragment TR2C (T state) TR2C (from UniProt P0DP23)
